Measurements reported in the DeepSol protein solubility set.

Experiment: soluble on expression in E. coli; label from the status in PepcDB or PDB records

Sequence | soluble on expression in E. coli
SNAMNIQILQEQANTLRFLSADMVQKANSGHPGAPLGLADILSVLSYHLKHNPKNPTWLNRDRLVFSGGHASALLYSFLHLSGYDLSLEDLKNFRQLHSKTPGHPEISTLGVEIATGPLGQGVANAVGFAMAAKKAQNLLGSDLIDHKIYCLCGDGDLQEGISYEACSLAGLHKLDNFILIYDSNNISIEGDVGLAFNENVKMRFEAQGFEVLSINGHDYEEINKALEQAKKSTKPCLIIAKTTIAKGAGELEGSHKSHGAPLGEEVIKKAKEQAGFDPNISFHIPQASKIRFESAVELGDLEEAKWKDKLEKSAKKELLERLLNPDFNKIAYPDFKGKDLATRDSNGEILNVLAKNLEGFLGGSADLGPSNKTELHSMGDFVEGKNIHFGIREHAMAAINNAFARYGIFLPFSATFFIFSEYLKPAARIAALMKIKHFFIFTHDSIGVGEDGPTHQPIEQLSTFRAMPNFLTFRPADGVENVKAWQIALNADIPSAFVLSRQKLKALNEPVFGDVKNGAYLLKESKEAKFTLLASGSEVWLCLESANELEKQGFACNVVSMPCFELFEKQDKAYQERLLKGEVIGVEAAHSNELYKFCHKVYGIESFGESGKDKDVFERFGFSVSKLVNFILSK | soluble
MGSDKIHHHHHHMKVIKFGGSSLASSQQLQKVLAIVEADQKRKYVIVSAPGKRFDGDTKVTDLLIQYARQTIHHQDTQAVTAAIIDRYAEIGHGFNVPEAQLTPIFETIRNLPKQSYADNTYLMAAFKAHGERLNAQLVAAVFQQSGLNARYLDPKDAGMVVTDVPDDAQIIKSSYDQLAKWANSEQILVIPGFFAYNRNGQICTFSRGGSDITGAIIARGVHAERYENFTDVDAIYAVNPSLVAKPAAISEMTFTEMRELSYAGFSVFHDEALIPAIEDNITVNVKNTNHPEAPGTLIQSTREPNPHYPVTGIASSSSFCSLYLRKYLLNKEVGLGRKILTILENHHISYEHMPSGIDDLTIIFDEHQLTPELEKTLVAEISTAINPDEIYFTHDYSILMLVGENMRNRVGIMSRAATALANDNIKLIMVNQGASEISIMFGVHDNDADQAVIALYKEFFD | not soluble
MAHHHHHHMSKSIAVIAAGAPAALVQAASAMVSKATGGAVKAMQATSAASNAIVVGMQAPRGVYACVAEPPSTASGPYAGVKTVVVRAILPRRAPDTMQVRDILDVYPASGITCEQETAEAVESFSKAAKVAVEKAKAMKATRVTLVMKPATKYERLNSLFRETCTKTIEAAGLSVETATTAAATNTLIMFPEKMSVVMVSDDPVCENVQYAFAGVVGGAHTTYYTDAGSTIHGGHSYKSVAMALAEELKSLGMKAEAAKVEAAAQKSPRNAAAAM | not soluble
INKINLNKPIIENKNNVDVSIKRYNNFVDIARLSIQKHFEHLSNDQKDSHVNNMEYMQKFVQGLQENRNISLSKYQENKAVMDLKYHLQKVYANYLSQEEN | soluble
MAHHHHHHMKRRCDLLEVHSVAARPHKRGGTETTREHHFPLYSHPMFRAARHNANAVQDAVAEQSDRVDPGALDAALENMVTQLVEQRLSRHEAEGDTSPTLAKKNFIVTESELLALLAEATHATPLSPRPQQPPSAFPPSRPEAIAALAAAAAASSPPPQQGPFIPNQGYHTTHPPLQSNGDAERRAGPPPRTQASLFSGAASALGGDEPDELNVVSVGALQQAALRSLGHMDEQAAPRLPPLSESVASTTSGPTTKQRHPPTMPLYSLLPCLVASPGLTAASVLPAIVSSSLNPSPSSVTFREMDRCPGTGTGLVAQQSVDAQQLHQVPDAVFAAMDVLMDGNNCCMRRRKRLVATNGNKAESLSLNPRCLPGSGGGASGGSCFAFGCGSKGASLNRMYVPVAQNTLPAPPPPRTASEAKARRILEGQRRKQRLHDQQQHLVSNSFSLAGGGNTAPLSSSLVEFRSDTTSLPTEPFRWRHIDRSGSRTHSSAHPAPLPAASSVSRSAAVVVGTASTLPLTQEASLTFTLRDIAGEPVYMQAISAANRCWPASLI | not soluble
MTFAWGRGSHGGAGMRIVQITDTHFSPTKAHFNGNWAPLAAWIEQSGADLVIHTGDLSVDGADRDDDIAFCMDLMREISAPMLLVPGNHDVGHLPGSLQPVNAGRLERWRRLVGPDYWMEDAGSWRLIGLDSLLMGFDDAEEEAQFDWLRTVLESRGGRRVALFAHKPLFVDAPGEGDTGYWSVRPAQRQRLYDLIATHDVALFASGHLHRAWQGKYENTSLVWGPSAALEHHHHHH | soluble
SNAMKEALATGSEAWWRTKTGPEWIREKDGNYRVTFWWRDPQGNETHSPIRRVWVYITGVTDHHQNAQPQTMARIAGTDVWRWSTALSANWRGSYCFIPTERDDVFAAFAPGETPDRNVLREGWRQLLPQAIADPLNSQSWRGGRGHAVSALEMPDAPLQPGWDRPETPYSPPLMMQWHSERLGNSRRVWILTTGDEAPEERPLAILLDGQFWAENMPVWPALASLTHQRLLPGAVYLLIDAIDTQHRSQELPCNADFWLAVQQELLPQVRAVTPFSDDAGRTVVAGQSFGGLSALYAGLNWPTRFGCVLSQSGSFWWPHRITPPEGEVITRLKTGALCARGLRIVLEAGVREPIVFQANQALYAQLNTSQQSIFWRQVDGGHDALCWRGGLTQGLMLLWQPLIDTL | soluble
MAHHHHHHMENIKLGFMGLGQMGSALAHGIANANIIKKENLFYYGPSKKNTTLNYMSSNEELARHCDIIVCAVKPDIAGSVLNNIKPYLSSKLLISICGGLNIGKLEEMVGSENKIVWVMPNTPCLVGEGSFIYCSNKNVNSTDKKYVNDIFNSCGIIHEIKEKDMDIATAISGCGPAYVYLFIESLIDAGVKNGLSRELSKNLVLQTIKGSVEMVKKSDQPVQQLKDNIVSPGGITAVGLYSLEKNSFKYTVMNAVEAACEKSKAMGSK | soluble
MLRSVPFDLVTRLMTTHFVSRQIFIGSGRVGIGEHSENAGYQLSQRADYFHMKVGLQTTFDRPIINTRDESHSTDEYRRLHVIVGDANRMDVPQALKLGTTSMLLWLLEHADMAEIDLNEALGPLTLADPVEAMHTVSHDLTLAAPLPLETGGTTTAWQMQVTLRGLVYAAAATVYGTDTSGEPAWPDRSTRNIMAMWGQALADVATVRHADDDGRLTMREQASRLEWLLKWQLLEKLRRKTGSDWTDRRLAAVDLKWAALDPADSIFTRLAGQTERLVTDKQLAEAVGQAPADTRAWLRAEIVRRFPEQVIAASWSHLTVRGESSGDENVENSMVSLDMSNPLKFTESLCSEAFERVHTASGIVESLR | not soluble
IFFMEAMSPQQETLGGQPGRSSSLTGVSRLAGGSCTKKKMKTLAERRRSAPSLILDKALQKRPTTRDSPSASVDTCTFLSSLVCSNRTLLIDGRAELKRGLQRQERHLFLFNDLFVVAKIKYNNNFKIKNKIKLTDMWTASCVDEVGEGNTNAMKSFVLGWPTVNFVATFSSPEQKDKWLSLLQRYINLEKEKDYPKSIPLKIFAKDIGNCAYSKTITVMNSDTANEVINMSLPMLGITGSERDYQLWVNSGKEEAPYPLIGHEYPYGIKMSHLRDSALLTPGSKDSTTPFNLQEPFLMEQLPREMQCQFILKPSRLAAAQQLSDSGHKTFKRRRSIINWAFWRGSSTHLDNLPSSPTSPMPGQLFGISLPNICENDNLPKPVLDMLFFLNQKGPLTKGIFRQSANVKSCRELKEKLNSGVEVHLDCESIFVIASVLKDFLRNIPGSIFSSDLYDHWVSVMDQGNDEEKINTVQRLLDQLPRANVVLLRYLFGVLHNIEQHSSSNQMTAFNLAVCVAPSILWPPASSSPELENEFTKKVSLLIQFLIENCLRIFGEEITSLFREVSVRCDTRENASDISCFQLNDSSYDSLENELNEDVDAPCSDLVKKLGQGSRSMDSVLTLSDYDLDQPEVEGLLTLSDFDLAHSKDEDVQMKRPLESKPVNILVYTKIPLRDHARAPSAMCTPSYLSTAAANAAKSLRRHRRCSEPSIDYLDSKLSYLREFYQKKLRKSSCDAILSQKDEDYLKQNQPLQEEGKTCFKQSLVTGTDVSKKNATTQNTKKKSLSGSEGNHVKLFPKSKPVAISVASYSPMSSQDHSKNQPFDVNTSGYSPPHTADALKGPRTHRRCSEPNIEDQNRKLTYLRGIYSKKQHKTSCEAGLLHGEEDYLKRHKSLQMEGQKLINQSLVMGIEVGKSSATNQNTEKVLPPRLNLCPRTSYSSLSSPGTSPSGSSVSSQDSAFSQISEHSVFTPTETSSPIDCTFQAQRKREDLSPDFSNASHVSGMPGPSSGQACSRPAYTKKDTMEWHSQMHSVTLHPSTWLRNGVASLKNWSLKKKAKAARPEEEKIASPKGPLEPPPHASGVPEANSLQEEQKDLPLRAAEGLSPVQSAQRCSSSPFQDSERHCSSPFSLVESRLKLCMKSHEEIEPGSQSSSGSLPWERASASSWTLEDATSPDSGPTVVCDIEDRYLTKDI | soluble
